Measurements taken from US20240409643A1, “ANTI-NMDAR2B ANTIBODIES, ANTIBODY-DRUG CONJUGATES, AND CHIMERIC ANTIGEN RECEPTORS, AND COMPOSITIONS AND METHODS OF USE” (THE TRUSTEES OF DARTMOUTH COLLEGE, priority 2021, published 2024).
“Also recorded” adds a separate entry of the source. Ends that are not written are not given here. * marks the point of attachment. 125I = [125I]*

Tests used:
LNCAP cells = experiment: LNCAP cell viability assay (AlamarBlue); type: cell-based; details: for Effect on LNCAP cell viability: 48 hours incubation, % of fluorescence of vehicle treated cells
Procedure: LNCAP cells were plated in 96 well plates at 1-2×10^4 cells/well. The cells were incubated with PBS with glycine containing albumin (1.25 mg/ml) in the presence of different concentrations of a NMDAR receptor antagonist, MK-801 (also known as dizocilpine) or memantine, dilutions of the anti-NMDAR1 antisera described in Example 1 or anti-NMDAR1 IgG isolated from such antisera, or vehicle only. Each group was run in quadruplicate. AlamarBlue® was later added to each well following an incubation period of 48 hours, and fluorescent readings were taken with excitation at 530-560 nm and emission at 590 nm and above on a SYNERGY™ HT Multi Detection Reader to (BioTek®). Cell viability (%) was calculated as % of fluorescence of vehicle treated cells at 48 hours.

NCI H82 cells [1] = experiment: In vivo treatment of NCI H82 tumors in nu/nu mice with ifenprodil
Procedure: (§1) Anti-NMDA receptor agent: ifenprodil was used as an exemplary NMDA receptor antagonist
Mouse treatment: Male nu/nu mice were injected subcutaneously with NCI H82 cells (about 10^7 cells/mouse). Tumors became obvious after 2-3 weeks and commenced growing rapidly. Animals were divided into two groups. […] The other group was treated with saline vehicle. Changes in the tumor size and body weight were recorded daily.

[2] = cited from earlier work
NCI H82 cells [3] = experiment: In vivo combination treatment of NCI H82 tumors in nu/nu mice: cyclophosphamide followed by ifenprodil; details: cyclophosphamide 75 mg/kg body weight daily for 3 days
Procedure: Anti-cancer agent: Cyclophosphamide, an alkylating agent, was used as an exemplary anti-cancer agent.
as §1
Mouse treatment: Male nu/nu mice were injected subcutaneously with NCI H82 cells (about 10^7 cells/mouse). […] Animals were divided into two groups. […] The other group was treated with saline vehicle. Changes in the tumor size were recorded daily.

[4] = target: T1, 125I-labeled NMDAR2B immunogen peptide (human); experiment: radioimmunoassay with 125I-labeled and free peptide
T1 construct: also called ^125I-labeled (radiolabel on the N-terminal tyrosine) NMDAR2B immunogen peptide
T1 peptide: Y(125I)KDAHEKDDF-NH2
Procedure: Radioimmunoassay: Radioimmunoassay on Fab3 through Fab10 was performed using ¹²⁵I-labeled (radiolabel on the N-terminal tyrosine) and free (no radiolabel or additional conjugation) NMDAR2B immunogen peptides.

[5] = target: T2, NMDAR2B immunogen peptide, free (YKDAHEKDDF-amide) (human); experiment: competition ELISA against peptide coupled to biotinylated BSA
T2 construct: Free form: no radiolabel and no further conjugation; also called free NMDAR2B immunogen peptide; free peptide
T2 peptide: YKDAHEKDDF-NH2
Procedure: (§2) ELISA assay: 96 well plates (ELISA Microlon 66 (Greiner Bio-one); #655061) were coated with Affinipure anti-human IgG antibodies (which bind to Fabs) (Jackson Immunoresearch Laboratories; #109-005-0060). Each well was added with a 50 μl volume containing 5 ng or 10 ng of an appropriate Fab and another […] volume containing the NMDAR2B immunogen peptide in a range of 10 μg to 10 ng, followed by incubation at 4° C. for 24-48 hours. Plates were washed, and each well was incubated with the biotinylated peptide at 100 ng/ml for 30 minutes to one hour and then with HRP-conjugated streptavidin (Thermo Industries; Product #N100) was added at 1:10,000 dilution for 30 minutes. Plates were washed and incubated with a mixture of 0.007% H₂O₂ and Amplex® Ultrared Reagent (Molecular Probes) for one hour, and fluorescence was read at excitation at 550 nm and fluorescence at 590 nm on a SYNERGY™ HT Multi Detection Reader to (BioTek®).
ELISA assay: ELISA as in Example 6 was performed using the NMDAR2B immunogen peptide coupled to biotinylated BSA and then, to test competition, the free NMDAR2B immunogen peptide.

[6] = target: T3, Biotinylated NMDAR2B immunogen peptide (human, also: biotinylated, site not given here); experiment: ELISA, Fab captured on anti-human IgG, streptavidin-HRP detection
T3 construct: also called biotinylated peptide
T3 peptide: YKDAHEKDDF-NH2
Procedure: as §2

[7] = target: T4, BSA-coupled NMDAR2B immunogen peptide (human; bovine, UniProt P02769 25-607, carrier, cross-linked to the peptide with glutaraldehyde; C-terminal amide; coupled to BSA with glutaraldehyde); experiment: competition displacement ELISA, additional studies (FIG. 7B)
T4 construct: also called NMDAR2B immunogen peptide coupled to BSA; unlabeled BSA-coupled NMDAR2B immunogen peptide
T4 sequence (P02769 25-607 limits assumed): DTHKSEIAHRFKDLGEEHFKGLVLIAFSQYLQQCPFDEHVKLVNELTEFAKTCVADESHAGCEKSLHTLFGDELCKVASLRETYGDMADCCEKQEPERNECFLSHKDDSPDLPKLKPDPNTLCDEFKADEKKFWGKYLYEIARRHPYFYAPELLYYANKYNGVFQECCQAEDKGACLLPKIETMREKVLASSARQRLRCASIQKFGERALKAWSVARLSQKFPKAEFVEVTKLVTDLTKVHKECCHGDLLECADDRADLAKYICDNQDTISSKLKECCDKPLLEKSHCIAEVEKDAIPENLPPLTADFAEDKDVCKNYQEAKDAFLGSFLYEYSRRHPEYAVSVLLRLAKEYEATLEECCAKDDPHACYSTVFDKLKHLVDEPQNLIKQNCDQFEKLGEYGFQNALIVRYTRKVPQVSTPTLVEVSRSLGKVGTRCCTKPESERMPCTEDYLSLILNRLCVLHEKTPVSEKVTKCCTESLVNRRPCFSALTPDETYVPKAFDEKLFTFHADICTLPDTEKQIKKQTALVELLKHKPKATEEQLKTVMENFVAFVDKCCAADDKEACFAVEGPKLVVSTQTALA
Procedure: as §2
ELISA assay: ELISA as in Example 6 was performed using the NMDAR2B immunogen peptide coupled to BSA (as prepared in Example 4) and the NMDAR2B immunogen peptide coupled to biotinylated BSA (as prepared in Example 7). Competition displacement curves were generated as repeated points in quadruplicate, and dissociation constants for respective Fabs to the BSA-coupled NMDAR2B immunogen peptide were calculated.

CC12CC3CC(C)(C1)CC(N)(C3)C2 [memantine]
Effect on LNCAP cell viability (LNCAP cells): reduced cell viability in a does-dependent manner

C[C@]12N[C@H](Cc3ccccc31)c1ccccc12 [MK-801, dizocilpine]
Effect on LNCAP cell viability (LNCAP cells): reduced cell viability in a does-dependent manner | Concentration at which the reduction of cell viability was statistically significant (p<0.01) (LNCAP cells; LNCAP cells, 48 hours): > 300 pM

CC(C(O)c1ccc(O)cc1)N1CCC(Cc2ccccc2)CC1 (centres unmarked) [ifenprodil]
Tumor growth with ifenprodil alone (NCI H82 cells [1]; animals that only received ifenprodil but not cyclophosphamide, after a day of decrease in size): continued to grow | Time for tumors to grow back to their original size (NCI H82 cells [1]; ifenprodil 2.5 mg/kg body weight intraperitoneally once daily): about 10 days | Tumor growth relative to original size (NCI H82 cells [1]; ifenprodil 2.5 mg/kg body weight intraperitoneally once daily, by two weeks of treatment, saline controls >6 times): < 2 times their original size | Tumor size relative to original size after initial shrinkage (NCI H82 cells [1]; ifenprodil 2.5 mg/kg body weight intraperitoneally once daily, in about a day): about 80% | Body weight versus saline control (NCI H82 cells [1]; over 8 days of treatment): no differences between groups | ED50 in mice [2]: about 350 mg/kg body weight

O=P1(N(CCCl)CCCl)NCCCO1 (centres unmarked) [cyclophosphamide]
Effect of cyclophosphamide treatment on tumor growth (NCI H82 cells [3]): does not inhibit tumor growth beyond the time of cyclophosphamide administration; also recorded: slowed but did not stop tumor growth

B1: Fab10 (Fab, V domains shown)
VH: EVQLVESGGGLVQPGGSLRLSCAASGFNLYSSYMHWVRQAPGKGLEWVASISSSYGYTYYADSVKGRFTISADTSKNTAYLQMNSLRAEDTAVYYCARTVRGSKKPYFSGWAMDYWGQGTLVTVSS
VL: DIQMTQSPSSLSASVGDRVTITCRASQSVSSAVAWYQQKPGKAPKLLIYSASSLYSGVPSRFSGSRSGTDFTLTISSLQPEDFATYYCQQGSYLITFGQGTKVEIK
notes: also called Ab10 (IgG form with the same VH and VL)
binding result [4]: no binding | binding result [5]: no binding | binding result [6]: no binding

B2: Fab8 (Fab, V domains shown)
VH: EVQLVESGGGLVQPGGSLRLSCAASGFNIYYSYMHWVRQAPGKGLEWVASISSSYGYTYYADSVKGRFTISADTSKNTAYLQMNSLRAEDTAVYYCARTVRGSKKPYFSGWAMDYWGQGTLVTVSS
VL: DIQMTQSPSSLSASVGDRVTITCRASQSVSSAVAWYQQKPGKAPKLLIYSASSLYSGVPSRFSGSRSGTDFTLTISSLQPEDFATYYCQQASYLITFGQGTKVEIK
notes: also called Ab8 (IgG form with the same VH and VL)
binding result [4]: no binding | binding result [5]: no binding | binding result [6]: no binding

B3: Fab6 (Fab, V domains shown)
VH: EVQLVESGGGLVQPGGSLRLSCAASGFNIYSSYIHWVRQAPGKGLEWVASISSSYGYTYYADSVKGRFTISADTSKNTAYLQMNSLRAEDTAVYYCARTVRGSKKPYFSGWAMDYWGQGTLVTVSS
VL: DIQMTQSPSSLSASVGDRVTITCRASQSVSSAVAWYQQKPGKAPKLLIYSASSLYSGVPSRFSGSRSGTDFTLTISSLQPEDFATYYCQQGGSLITFGQGTKVEIK
notes: also called Ab6 (IgG form with the same VH and VL)
binding result [4]: no binding | binding result [5]: no binding | binding result [6]: no binding

B4: Fab5 (Fab, V domains shown)
VH: EVQLVESGGGLVQPGGSLRLSCAASGFNLYSSYMHWVRQAPGKGLEWVASIYSSYSSTYYADSVKGRFTISADTSKNTAYLQMNSLRAEDTAVYYCARTVRGSKKPYFSGWAMDYWGQGTLVTVSS
VL: DIQMTQSPSSLSASVGDRVTITCRASQSVSSAVAWYQQKPGKAPKLLIYSASSLYSGVPSRFSGSRSGTDFTLTISSLQPEDFATYYCQQGAGLITFGQGTKVEIK
notes: also called Ab5 (IgG form with the same VH and VL)
binding result [4]: no binding | binding result [5]: no binding | binding result [6]: no binding

B5: Fab7 (Fab, V domains shown)
VH: EVQLVESGGGLVQPGGSLRLSCAASGFNFSSSSIHWVRQAPGKGLEWVASISSSYGYTYYADSVKGRFTISADTSKNTAYLQMNSLRAEDTAVYYCARTVRGSKKPYFSGWAMDYWGQGTLVTVSS
VL: DIQMTQSPSSLSASVGDRVTITCRASQSVSSAVAWYQQKPGKAPKLLIYSASSLYSGVPSRFSGSRSGTDFTLTISSLQPEDFATYYCQQGSHLITFGQGTKVEIK
notes: also called Ab7 (IgG form with the same VH and VL)
binding result [4]: no binding | binding result [5]: no binding | binding result [6]: no binding

B6: Fab9 (Fab, V domains shown)
VH: EVQLVESGGGLVQPGGSLRLSCAASGFNLSYSSMHWVRQAPGKGLEWVASISPYSGSTYYADSVKGRFTISADTSKNTAYLQMNSLRAEDTAVYYCARYYWYYYYGFDYWGQGTLVTVSS
VL: DIQMTQSPSSLSASVGDRVTITCRASQSVSSAVAWYQQKPGKAPKLLIYSASSLYSGVPSRFSGSRSGTDFTLTISSLQPEDFATYYCQQYVGYGSPITFGQGTKVEIK
notes: also called Ab9 (IgG form with the same VH and VL)
binding result [4]: no binding | Kd [7]: ~5 nM | binding result [5]: no binding | binding result [6]: no binding

B7: Fab4 (Fab, V domains shown)
VH: EVQLVESGGGLVQPGGSLRLSCAASGFNLYYYSIHWVRQAPGKGLEWVAYISSYYGYTYYADSVKGRFTISADTSKNTAYLQMNSLRAEDTAVYYCARYYPGGWHAFDYWGQGTLVTVSS
VL: DIQMTQSPSSLSASVGDRVTITCRASQSVSSAVAWYQQKPGKAPKLLIYSASSLYSGVPSRFSGSRSGTDFTLTISSLQPEDFATYYCQQYYGYGYPITFGQGTKVEIK
notes: also called Ab4 (IgG form with the same VH and VL)
binding result [4]: no binding | binding result [5]: no binding | binding result [6]: no binding
